From the supplement of paper PMC9170038

System: MS2 coat protein
Assay: apparent KD of MS2 coat protein; designed switch direction (-1 OFF switch, 1 ON switch): -1; higher = weaker reporter binding
Outline: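 On Illumina chips, designed RNA switches with common flanks were made by stalled E. coli RNA polymerase. Titrations with SNAP-549-labelled MS2 coat protein, doubling from 0.7 or 1.5 nM to 3 µM, were done with no input, with 200 uM small-molecule ligand, or with an oligonucleotide input. Apparent KD is the median per design over clusters, from curve fits of normalised cluster fluorescence.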

[1] = input ligand: microRNA oligo, concentration not stated
[2] = Eterna round: R95, input ligand: microRNA oligo, concentration not stated
[3] = Eterna round: R95, input ligand: FMN 200 uM
[4] = Eterna round: R95, input ligand: none

“CCGCUCCGUGUAGGAUAUUGGCCUGCUCUGGGUCGAGAAGGACAUGAGGAUCACCCAUGUAUGUUAUUAUCACGCGUGGCGCAU [Design 80] (Eterna round: R96, puzzle: Exclusion NG 1)” was tested, and the “apparent KD of MS2 coat protein” value (input ligand: FMN 200 uM) was 41.8 nM, the “apparent KD of MS2 coat protein” value [1] was 18.9 nM and the “apparent KD of MS2 coat protein” value (input ligand: none) was 29.3 nM.

For “CCGCUGUGAGGAUAUUAGUAGUAGUCAGAAAAGACUAUUACUGAGAAGGCACAUGAGGAUCACCCAUGUCGCGG [Mat - Exclusion 4 - Eli Mod - D49] (Eterna round: R97, puzzle: Exclusion 4)”, the “apparent KD of MS2 coat protein” value (input ligand: FMN 200 uM) was 39.7 nM and the “apparent KD of MS2 coat protein” value (input ligand: none) was 28.8 nM.

For “CCGGAAAGGAAGGAUAUGCUAGACGAAAGUCUAGCAGAAGGUCCUACAUGAGGAUCACCCAUGUGUCCUCCCGG [Eli x6 4.08] (Eterna round: R97, puzzle: Exclusion 6)”, the “apparent KD of MS2 coat protein” value (input ligand: FMN 200 uM) was 2270 nM and the “apparent KD of MS2 coat protein” value (input ligand: none) was 270 nM.

With “CCGGAAAGGAAGGAUAUGCUAGACGAUAGUCUAGCAGAAGGUCCUACAUGAGGAUCACCCAUGUGUCCUCCCGG [Mat - Exclusion 6 - Eli Mod - D43] (Eterna round: R97, puzzle: Exclusion 6)” the “apparent KD of MS2 coat protein” value (input ligand: FMN 200 uM) was 1260 nM and the “apparent KD of MS2 coat protein” value (input ligand: none) was 182 nM.

For “CCGGAAGUAGAGGAUAUCGUAUCGGAUACGAUACGAGAAGGCUAUACAUGAGGAUCACCCAUGUGUCCUACCGG [Fiskers Ex 6 - 5] (puzzle: Exclusion 6)”, the “apparent KD of MS2 coat protein” value [2] was 21.4 nM.

“CCGGCCGCCGUGAGGAUAUGCCCGCGCGCCCGCGGGCAGAAGGCACAUGAGGAUCACCCAUGUCCCGCGGUCCC [salish99_bmx4_r4_123] (Eterna round: R97, puzzle: Brourd's mod of Exclusion 4)” was tested, and the “apparent KD of MS2 coat protein” value (input ligand: FMN 200 uM) was 35.8 nM and the “apparent KD of MS2 coat protein” value (input ligand: none) was 15.6 nM.

In the case of “CCGGCUGCUGUGAGGAUAUGCCCGCGCGCCCGCGGGCAGAAGGCACAUGAGGAUCACCCAUGUCCUGCGGUCCC [salish99_bmx4_r4_120] (Eterna round: R97, puzzle: Brourd's mod of Exclusion 4)”, the “apparent KD of MS2 coat protein” value (input ligand: FMN 200 uM) is reported as 122 nM and the “apparent KD of MS2 coat protein” value (input ligand: none) is reported as 24.1 nM.

With “CCGGUAAAGGAGGAUAUAGGAGUCGAUAGACACCUAGAAGGCCUGACAUGAGGAUCACCCAUGUGUCCUACCGG [Fiskers Ex 6 - 93] (puzzle: Exclusion 6)” the “apparent KD of MS2 coat protein” value [3] was 23.7 nM, the “apparent KD of MS2 coat protein” value [2] was 14.1 nM and the “apparent KD of MS2 coat protein” value [4] was 13.5 nM.

With “CCGGUUGGCGCAGGAUAUACAUGAGGAUCACCCAUGUUCAUGAGGAUCACUCAUGAGUUUUUGUUGUAGAAGGGUGGCCCGGCC (Eterna round: R96, puzzle: Exclusion NG 2)” the “apparent KD of MS2 coat protein” value (input ligand: FMN 200 uM) was 1170 nM, the “apparent KD of MS2 coat protein” value [1] was 605 nM and the “apparent KD of MS2 coat protein” value (input ligand: none) was 933 nM.

With “CCGUGAGGUAAUAAUCAGUACAUGAGGAUCACCCAUGUCAAGAAGUUGCUCGUCGGUCGGAAAUACGGACGACCCAU [Eternabot (Original) Solution 50] (Eterna round: R97, puzzle: Sensor, turn-off variant 1)” the “apparent KD of MS2 coat protein” value (input ligand: FMN 200 uM) was 19.1 nM and the “apparent KD of MS2 coat protein” value (input ligand: none) was 17.9 nM.

For “CCGUGGCAAGGAUAUACAGAGGAGAGGAAGGCAAGAGGUGGACAUGAGGAUCACCCAUGUAGAAGGUGCAGAGC [JR_Exclu2_Sub026] (puzzle: Exclusion 2)”, the “apparent KD of MS2 coat protein” value [3] was 130 nM, the “apparent KD of MS2 coat protein” value [2] was 124 nM and the “apparent KD of MS2 coat protein” value [4] was 160 nM.

In the case of “CCUAAACAUGAGGAUCACCCAUGUGAGGAUAUGAUGCAGCAGUGGUCUACGCUGUGCAUCAGAAGGUACAUGGU (puzzle: Exclusion 1)”, the “apparent KD of MS2 coat protein” value [2] is reported as 73.4 nM.

“CCUAGUUGGUAAGGAUAUCCUACACUAUUCUGACCCGUGCAAGCUACAUGAGGAUCACCCAUGUGGGAGAAGGUGCGUCAACGC [Design 11] (Eterna round: R96, puzzle: Exclusion NG 2)” was tested, and the “apparent KD of MS2 coat protein” value (input ligand: FMN 200 uM) was 29.1 nM, the “apparent KD of MS2 coat protein” value [1] was 19.7 nM and the “apparent KD of MS2 coat protein” value (input ligand: none) was 32.9 nM.

“CCUAGUUGGUAAGGAUAUCCUACACUGUUCUGACCCGGGCAUGCUACAUGAGGAUCACCCAUGUGGGAGAAGGUGCGUCAACGC [Design 14] (Eterna round: R96, puzzle: Exclusion NG 2)” was tested, and the “apparent KD of MS2 coat protein” value (input ligand: FMN 200 uM) was 36.8 nM, the “apparent KD of MS2 coat protein” value [1] was 19.3 nM and the “apparent KD of MS2 coat protein” value (input ligand: none) was 30.6 nM.

With “CCUAGUUGGUAAGGAUAUCCUACAUUGUUCUGACCCGGGCAUGCUACAUGAGGAUCACCCAUGUGGGAGAAGGUGCGUCAUCGC [Design 16] (Eterna round: R96, puzzle: Exclusion NG 2)” the “apparent KD of MS2 coat protein” value (input ligand: FMN 200 uM) was 80.4 nM, the “apparent KD of MS2 coat protein” value [1] was 55.9 nM and the “apparent KD of MS2 coat protein” value (input ligand: none) was 83.4 nM.

For “CCUCAGUGAGGAUAUCAGUAAUGUAAGACGUACAGUCGCACUGAGAAGGUACAUGAGGAUCACCCAUGUUAGUU [Eternabot (L1) Solution 50] (Eterna round: R97, puzzle: Exclusion 4)”, the “apparent KD of MS2 coat protein” value (input ligand: FMN 200 uM) was 31.3 nM and the “apparent KD of MS2 coat protein” value (input ligand: none) was 23 nM.

With “CCUCCACAUGAGGAUCACCCAUGUCAGGAUAUCGUGUGUGUUUUUUCGGUCUUUCGUGCGAGAAGGGACGUCUG (puzzle: Exclusion 1)” the “apparent KD of MS2 coat protein” value [2] was 45.6 nM.

For “CCUCCACAUGAGGAUCACCCAUGUCAGGAUAUCGUGUGUUUUUUUUCGGUCUUUCGUGCGAGAAGGGACGUCUU (puzzle: Exclusion 1)”, the “apparent KD of MS2 coat protein” value [2] was 30.8 nM.

In the case of “CCUCCGGUACGAGGAUAUCUGACGGCCGCCGGAGGAGAAGGCGUACAUGAGGAUCACCCAUGUCCAGCGUGCACCACGCUGGUU [Usbius] (Eterna round: R96, puzzle: Exclusion NG 1)”, the “apparent KD of MS2 coat protein” value (input ligand: FMN 200 uM) is reported as 119 nM, the “apparent KD of MS2 coat protein” value [1] is reported as 38.1 nM and the “apparent KD of MS2 coat protein” value (input ligand: none) is reported as 44.9 nM.

With “CCUCUACAUGAGGAUCACCCAUGUCAGGAUAUGCGAAUUUCAUCAAAAGAUGAAAUUUGCAGAAGGGACUAAGC [Omei Ex1 A34] (Eterna round: R97, puzzle: Exclusion 1)” the “apparent KD of MS2 coat protein” value (input ligand: FMN 200 uM) was 282 nM and the “apparent KD of MS2 coat protein” value (input ligand: none) was 246 nM.

For “CCUCUACAUGAGGAUCACCCAUGUGAGGAUAUCAAAGUCAGGGCGGCGCCCUGACUCAUGAGAAGGUGCAUGAA [EX1 A.16] (Eterna round: R97, puzzle: Exclusion 1)”, the “apparent KD of MS2 coat protein” value (input ligand: FMN 200 uM) was 31.8 nM and the “apparent KD of MS2 coat protein” value (input ligand: none) was 22.4 nM.

With “CCUCUACAUGAGGAUCACCCAUGUGAGGAUAUCUCGGAAAAGCCACUUAAGGUACUCCAGAGAAGGCACGUGUA [Rileed] (puzzle: Exclusion 1)” the “apparent KD of MS2 coat protein” value [2] was 15.2 nM.

In the case of “CCUCUACAUGAGGAUCACCCAUGUGAGGAUAUCUCGGAGCAGCCAAUUAAAGCGCUCCAGAGAAGGCACGUGUA [Inesraar] (puzzle: Exclusion 1)”, the “apparent KD of MS2 coat protein” value [2] is reported as 19.4 nM.

“CCUCUACAUGAGGAUCACCCAUGUGAGGAUAUCUCGGAGCAGCCACUUAAGGCGCUCCAGAGAAGGCACGUGUA [Resogeorza] (puzzle: Exclusion 1)” was tested, and the “apparent KD of MS2 coat protein” value [2] was 17.6 nM.

For “CCUCUGUAAGGAUAUACGGAGACGGCUGGAAUCAGUGGAAAGUAGAAGGUACAUGAGGAUCACCCAUGUGAGAC [Anceleso] (puzzle: Exclusion 4)”, the “apparent KD of MS2 coat protein” value [2] was 20.2 nM.

With “CCUGAUCCACAGGAUAUGCUCAUCUAAUGAUGAGCAGAAGGGUGGACAUGAGGAUCACCCAUGUUUAUCAAUGG [Omei Ex6 D4] (Eterna round: R97, puzzle: Exclusion 6)” the “apparent KD of MS2 coat protein” value (input ligand: FMN 200 uM) was 804 nM and the “apparent KD of MS2 coat protein” value (input ligand: none) was 125 nM.

For “CCUUAGUCACAGGAUAUGCUCAUCUAAUGAUGAGCAGAAGGGUGGACAUGAGGAUCACCCAUGUUUAUCAAGGG [Omei Ex6 E2] (Eterna round: R97, puzzle: Exclusion 6)”, the “apparent KD of MS2 coat protein” value (input ligand: FMN 200 uM) was 249 nM and the “apparent KD of MS2 coat protein” value (input ligand: none) was 348 nM.

With “CCUUAGUUAGGAUAUAUUAAGGCCUCUGUGAGCGCAGGGCAAUAGAAGGAACAUGAGGAUCACCCAUGUAUGGA [Eternabot (L2) Solution 98] (Eterna round: R97, puzzle: Exclusion 4)” the “apparent KD of MS2 coat protein” value (input ligand: FMN 200 uM) was 38.6 nM and the “apparent KD of MS2 coat protein” value (input ligand: none) was 29.7 nM.

With “CGAGCCUAUGUAAGGAUAUCACAAUAAAACCAGUGUGAGAAGGUACAUGAGGAUCACCCAUGUUCACGACUGGC [BmEX4 A.26] (Eterna round: R97, puzzle: Brourd's mod of Exclusion 4)” the “apparent KD of MS2 coat protein” value (input ligand: FMN 200 uM) was 16.9 nM and the “apparent KD of MS2 coat protein” value (input ligand: none) was 16.8 nM.

For “CGAGCUAGUGUGAGGAUAUACCUAUGGAUACAUAGGUAGAAGGCACAUGAGGAUCACCCAUGUCCUAUAGCUCG [jl-bmx4-4.56] (Eterna round: R97, puzzle: Brourd's mod of Exclusion 4)”, the “apparent KD of MS2 coat protein” value (input ligand: FMN 200 uM) was 499 nM and the “apparent KD of MS2 coat protein” value (input ligand: none) was 177 nM.

With “CGAUAAAGGUGAGGAUAUGAGAAUAGAAAGAAAUCAGAAGGCACACAUGAGGAUCACCCAUGUGAGUUCUUGAGAUUACAUGGU [Prohibition 44 - Jieux - Exclusion NG 1] (Eterna round: R96, puzzle: Exclusion NG 1)” the “apparent KD of MS2 coat protein” value [1] was 11 nM.

In the case of “CGAUGAGCGGUGAGGAUAUCGUGUUCGAAAGAACGUGAGAAGGCACAUGAGGAUCACCCAUGUGAUCCUCAUCG [Omei Ex4B A34] (Eterna round: R97, puzzle: Brourd's mod of Exclusion 4)”, the “apparent KD of MS2 coat protein” value (input ligand: FMN 200 uM) is reported as 21.4 nM and the “apparent KD of MS2 coat protein” value (input ligand: none) is reported as 15.2 nM.

“CGAUGCUCGUGUCCACAUGAGGAUCACCCAUGUCGAGUUAGCGAGGAUAUCGGUGACACAUAGUACGAGAAGGCGCGAACCUGA [Ex NG3 #26] (Eterna round: R96, puzzle: Exclusion NG 3)” was tested, and the “apparent KD of MS2 coat protein” value (input ligand: FMN 200 uM) was 54.3 nM, the “apparent KD of MS2 coat protein” value [1] was 21 nM and the “apparent KD of MS2 coat protein” value (input ligand: none) was 32.2 nM.
